B1: CycR-Strep (natural protein, Sinorhizobium meliloti, UniProt Q92MZ5 1-213, looked up)
chain: MVLPRAARTQRRTRIQEEKEEQILEAALEVFSANGFRGSTIDQIADVAGMSKPNLLYYFRTKEAMHRALIDRVLDTWLDPLRAFDAEGNPVAEIRSYIRRKLEMARDFPRESRLFANEVLQGAPRIVDELKGPLKQLVDEKAEVIRSWAKAGKIAKCDPYHLIFAIWSTTQHYADFDVQVRAVLGQENAGEGRFEDAARFLERLFVDGLQVRE
notes: TetR-like transcriptional regulator CycR (TR01819, product of gene smc01819) of Sinorhizobium meliloti; CycR-Strep printed as 28.3 kDa; The purification is told in words only for Clr-Strep; also called Strep-CycR; TR01819; source: E. coli BL21(DE3) with pMW3065, purified; not shown: Strep, C-terminal, kept
B2: His6-CyaC (enzyme, Sinorhizobium meliloti, UniProt Q92MZ6 1-557, looked up)
chain: MTILSASTRKKMHLISGAVLGVFVLLHFSNHALGLVSIDAMETGRRIFTSVWQSIPGTALLYGALLLHFLMALDSLYRRQTFRMPVGEALKIIFGLSLPFLLVPHVVAARVEPLLSGVYPDYPAILRTLWSSSFNTSRQSLALIVVWGHACLGAWFWMRGRAWFPKYETLLYTVALLVPIFALLGFVNGARSLERDYAEHGGYGDRAYSSQAPRVDPNLLDKIRLAFYGGFASLIGGTLVLRALPARGRIRIRYPDGRVAAVSLGFSVLEASRAAGIPHVSVCGGRGRCSTCRVRITQGLEGQPPPEAAELATLTRIGAPENVRLACQFRPVHNVSVVPILDTDSLGIKTQLARQNAGGRERRVAVLFCDLRDFTRIAEHRLPYDTVFLLNRYFEVVGEAVEGSGGVVDKFIGDGALAIFGLKTPLPEACRQALSAAARLSQGIRALNQTFEGELEQPLRLAIGLHAGPAIIGEMGYGQATSLTVVGDTINTASRLEGLAKEHDVELAVSAELVERAGLSFEGHRRLEIGLRGRKATLETWIIGDAAQLSLSLPMQG
notes: His6-CyaC printed as 64.0 kDa; Solubilised in detergent; also called SMc01818 protein; source: E. coli C43(DE3) with pMW3043, extracted from membranes with 1% n-dodecyl-β-D-maltoside, purified (Ni2+-NTA); not shown: His6, N-terminal, kept

Experiments:
[1] = molecular target: CyaC(K410A T484A), fused to the T18 or T25 fragment of Bordetella pertussis adenylate cyclase (Sinorhizobium meliloti); assay: two-hybrid; bacterial adenylate cyclase two-hybrid (BACTH) in E. coli BTH101; T18 and T25 fusions co-expressed from plasmids; grown anaerobically in LB with 20 mM DMSO; β-galactosidase read-out, percent of the Zip-T18/Zip-T25 positive control
His6-CyaC [2] = molecular target: B2; assay: SPR; Biacore T200, CM5 chip with StrepTactin; about 200 RU CycR-Strep captured; His6-CyaC injected at 10-5,000 nM; HBS-EP+ (10 mM HEPES pH 7.4, 150 mM NaCl, 3 mM EDTA, 0.05% P20), 25 °C; with 500 µM cAMP; conditions: both partners purified
His6-CyaC [3] = molecular target: B2; assay: SPR; Biacore T200, CM5 chip with StrepTactin; about 200 RU CycR-Strep captured; His6-CyaC injected at 10-5,000 nM; HBS-EP+ (10 mM HEPES pH 7.4, 150 mM NaCl, 3 mM EDTA, 0.05% P20), 25 °C; without cAMP; conditions: both partners purified
CycR-Strep = molecular target: B1; assay: as above; conditions: both partners purified

A BACTH β-galactosidase activity, percent of the Zip positive control [1] of 108% was found for “Clr (Smc02175), fused to the T18 or T25 fragment of Bordetella pertussis adenylate cyclase (natural protein)” in this work.

A Kd (His6-CyaC [2]) of 114 nM and a Kd (His6-CyaC [3]) of 160 nM were found for B1 in this work.

In the case of B2, the “stoichiometry N” value (CycR-Strep) is reported as 1.

Reference: PMC10463352, “A signaling complex of adenylate cyclase CyaC of Sinorhizobium meliloti with cAMP and the transcriptional regulators Clr and CycR” (BMC Microbiology, 2023)
